Reference: patent publication US10464978B2, “Peptides and combination of peptides for use in immunotherapy against ovarian cancer and other cancers” (immatics biotechnologies GmbH, priority 2015, dated 2019)

Molecular target: HLA-A*02:01 (Homo sapiens, UniProt P04439, D140Y/D185E/D98H/E176V/E277Q/G131W/G231S/I119V/I121R/I166T/I218V/L300P/L318F/N151K/N90K/P208A/P217A/Q86G/Q94H/R138H/R169H/T345S)
Experiment: MHC binding assay: UV-ligand exchange with beta2m ELISA (peptide exchange yield)
Conditions: binding to HLA-A*02:01
Procedure, shortened: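 Values give exchange yield, measured by β2m ELISA: 100-fold-diluted monomers bound to streptavidin plates (1h, 37° C), probed with HRP anti-β2m at 2 ug/ml and read at 450 nm after TMB. Monomers came from UV-triggered cleavage of a photolabile peptide and exchange for the test peptide.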

Substance | Peptide exchange (MHC class I binding score, peptide exchange yield)
384 (ILFANPNIFV; listed as Homo sapiens) [compound 384] | “+++” (≥50 = +++)
385 (SLLEQGLVEA; listed as Homo sapiens) [compound 385] | “++” (≥20% = ++)
386 (ILFRYPLTI; listed as Homo sapiens) [compound 386] | “+++” (≥50 = +++)
387 (ALFQATAEV; listed as Homo sapiens) [compound 387] | “++++” (≥75% = ++++)
388 (SLTIDGIRYV; listed as Homo sapiens) [compound 388] | “+++” (≥50 = +++)
389 (LLADVTHLL; listed as Homo sapiens) [compound 389] | “++” (≥20% = ++)
390 (ALFMKQIYL; listed as Homo sapiens) [compound 390] | “+++” (≥50 = +++)
391 (YVYPQRLNFV; listed as Homo sapiens) [compound 391] | “+++” (≥50 = +++)
392 (ALLHPQGFEV; listed as Homo sapiens) [compound 392] | “++” (≥20% = ++)
393 (GLLDTQTSQVLTA; listed as Homo sapiens) [compound 393] | “++” (≥20% = ++)
394 (LLAVIGGLVYL; listed as Homo sapiens) [compound 394] | “+++” (≥50 = +++)
395 (ALALGGIAVV; listed as Homo sapiens) [compound 395] | “++++” (≥75% = ++++)
396 (ALLPDLPAL; listed as Homo sapiens) [compound 396] | “+++” (≥50 = +++)
397 (YLFGERLLEC; listed as Homo sapiens) [compound 397] | “+++” (≥50 = +++)
398 (KLLEEDGTIITL; listed as Homo sapiens) [compound 398] | “++” (≥20% = ++)
399 (YLFEPLYHV; listed as Homo sapiens) [compound 399] | “+++” (≥50 = +++)
400 (SLLTEQDLWTV; listed as Homo sapiens) [compound 400] | “++” (≥20% = ++)
401 (ILLDDTGLAYI; listed as Homo sapiens) [compound 401] | “+++” (≥50 = +++)
402 (VLFSGALLGL; listed as Homo sapiens) [compound 402] | “++” (≥20% = ++)
403 (KLYDRILRV; listed as Homo sapiens) [compound 403] | “++” (≥20% = ++)
405 (ALYDVFLEV; listed as Homo sapiens) [compound 405] | “++” (≥20% = ++)
407 (YLMDLINFL; listed as Homo sapiens) [compound 407] | “+++” (≥50 = +++)
408 (VLDDSIYLV; listed as Homo sapiens) [compound 408] | “++” (≥20% = ++)
409 (LLDAMNYHL; listed as Homo sapiens) [compound 409] | “++” (≥20% = ++)
412 (YLDDLNEGVYI; listed as Homo sapiens) [compound 412] | “++” (≥20% = ++)
426 (RLADKSVLV; listed as Homo sapiens) [compound 426] | “+++” (≥50 = +++)
427 (ALLPLSPYL; listed as Homo sapiens) [compound 427] | “+++” (≥50 = +++)

Now from value to substance:

Peptide exchange (MHC class I binding score, peptide exchange yield) | Substance
“++” (≥20% = ++) | 428 (KLGHTDILVGV; listed as Homo sapiens) [compound 428]
“++” (≥20% = ++) | 429 (GLVNDLARV; listed as Homo sapiens) [compound 429]
“+++” (≥50 = +++) | 430 (HLYSSIEHLTT; listed as Homo sapiens) [compound 430]
“++” (≥20% = ++) | 431 (SLVNVVPKL; listed as Homo sapiens) [compound 431]
“++” (≥20% = ++) | 432 (TLIEESAKV; listed as Homo sapiens) [compound 432]
“+++” (≥50 = +++) | 433 (AMLNEPWAV; listed as Homo sapiens) [compound 433]
“++” (≥20% = ++) | 434 (KVSNSGITRV; listed as Homo sapiens) [compound 434]
“+++” (≥50 = +++) | 436 (HLAEVSAEV; listed as Homo sapiens) [compound 436]
“+++” (≥50 = +++) | 437 (SMAPGLVIQAV; listed as Homo sapiens) [compound 437]
“++++” (≥75% = ++++) | 438 (KLLPLAGLYL; listed as Homo sapiens) [compound 438]
“+++” (≥50 = +++) | 439 (YLLQEIYGI; listed as Homo sapiens) [compound 439]
“++” (≥20% = ++) | 440 (ALADGVTMQV; listed as Homo sapiens) [compound 440]
“+++” (≥50 = +++) | 441 (ALLENPKMEL; listed as Homo sapiens) [compound 441]
“+++” (≥50 = +++) | 442 (GLLGGGGVLGV; listed as Homo sapiens) [compound 442]
“+++” (≥50 = +++) | 443 (GLWEIENNPTV; listed as Homo sapiens) [compound 443]
“+++” (≥50 = +++) | 444 (GLLRDEALAEV; listed as Homo sapiens) [compound 444]
“+++” (≥50 = +++) | 446 (QLIPALAKV; listed as Homo sapiens) [compound 446]
“++” (≥20% = ++) | 447 (QLVPALAKV; listed as Homo sapiens) [compound 447]
“+++” (≥50 = +++) | 448 (NLLETKLQL; listed as Homo sapiens) [compound 448]
“+++” (≥50 = +++) | 449 (KLAEGLDIQL; listed as Homo sapiens) [compound 449]

Peptide exchange (MHC class I binding score, peptide exchange yield) | Substance
“+++” (≥50 = +++) | 450 (FMIDASVHPTL; listed as Homo sapiens) [compound 450]
“++” (≥20% = ++) | 451 (LLLLDTVTMQV; listed as Homo sapiens) [compound 451]
“+++” (≥50 = +++) | 452 (ILLEHGADPNL; listed as Homo sapiens) [compound 452]
“++” (≥20% = ++) | 453 (KLLEATSAV; listed as Homo sapiens) [compound 453]
“+++” (≥50 = +++) | 454 (KLPPPPPQA; listed as Homo sapiens) [compound 454]
“++” (≥20% = ++) | 455 (SLLKEPQKVQL; listed as Homo sapiens) [compound 455]
“+++” (≥50 = +++) | 456 (LLIGHLERV; listed as Homo sapiens) [compound 456]
“+++” (≥50 = +++) | 457 (SLLPGNLVEKV; listed as Homo sapiens) [compound 457]
“++” (≥20% = ++) | 458 (SLIDKLYNI; listed as Homo sapiens) [compound 458]
“++” (≥20% = ++) | 459 (ALITEVVRL; listed as Homo sapiens) [compound 459]
“++++” (≥75% = ++++) | 460 (AMLEKNYKL; listed as Homo sapiens) [compound 460]
“++” (≥20% = ++) | 461 (VMFRTPLASV; listed as Homo sapiens) [compound 461]
“+++” (≥50 = +++) | 462 (KLAKQPETV; listed as Homo sapiens) [compound 462]
“+++” (≥50 = +++) | 463 (SLVESHLSDQLTL; listed as Homo sapiens) [compound 463]
“+++” (≥50 = +++) | 464 (ALNDCIYSV; listed as Homo sapiens) [compound 464]
“+++” (≥50 = +++) | 465 (QLCDLNAEL; listed as Homo sapiens) [compound 465]
“++++” (≥75% = ++++) | 466 (VLIANLEKL; listed as Homo sapiens) [compound 466]
“+++” (≥50 = +++) | 467 (FLAKDFNFL; listed as Homo sapiens) [compound 467]
“+++” (≥50 = +++) | 468 (YLRSVGDGETV; listed as Homo sapiens) [compound 468]
